Data reported in patent US4642335A, “Anthracycline compounds bound to hydrophilic polypeptides” (Ajinomoto Co., Inc., priority 1984, dated 1987).

Each molecule was assayed on mouse L1210 leukemia (assay: antitumor activity against mouse L1210 leukemia, life prolongation rate). Settings: dose 1 mg/Kg, once a day for five days starting 24 hours after tumor cell injection; control survival day = 100%.
Type: in vivo
Procedure: (§1) These HB-6 substances were tested for their antitumor activity in terms of mouse L1210 leukemia. L1210 leukemia cells (1×10^5) were abdominally injected to each mouse, and the test sample was administered once a day for consecutive five days, with the first administration being started 24 hours after injection of the tumor cells. The result is summarized in Table 1, in which the antitumor activity of each drug is expressed as life prolongation rate, taking the survival day for the control group as 100%.
as §1, with “HBW-6” for “HB-6”, “2,” for “1,”

Row | Molecule | Life Prolongation Rate [%]
1 | HB-22(A): NCS-apoprotein and γ-rhodomycin Y bound together, molar ratio 1:1 (conjugate, UniProt P0A3R9 35-147, looked up, complex with gamma-rhodomycin Y, 1:1) Neocarzinostatin: AAPTATVTPSSGLSDGTVVKVAGAGLQAGTAYDVGQCAWVDTGVLACNPADFSSVTADANGSASTSLTVRRSFEGFLFDGTRWGTVDCTTAACQVGLSDAAGNGPEGVAISFN | 145
2 | HBW-20(B): NCS-apoprotein and adriamycin bound together, molar ratio 1:5 (conjugate, UniProt P0A3R9 35-147, looked up, adriamycin conjugate, 1:5) Neocarzinostatin: AAPTATVTPSSGLSDGTVVKVAGAGLQAGTAYDVGQCAWVDTGVLACNPADFSSVTADANGSASTSLTVRRSFEGFLFDGTRWGTVDCTTAACQVGLSDAAGNGPEGVAISFN | 245
3 | HBW-22(A): NCS-apoprotein and γ-rhodomycin Y bound together, molar ratio 1:1 (conjugate, UniProt P0A3R9 35-147, looked up, γ-rhodomycin Y conjugate, 1:1) Neocarzinostatin: AAPTATVTPSSGLSDGTVVKVAGAGLQAGTAYDVGQCAWVDTGVLACNPADFSSVTADANGSASTSLTVRRSFEGFLFDGTRWGTVDCTTAACQVGLSDAAGNGPEGVAISFN | 158
4 | HB-22(B): NCS-apoprotein and γ-rhodomycin Y bound together, molar ratio 1:5 (conjugate, UniProt P0A3R9 35-147, looked up, γ-rhodomycin Y conjugate, 1:5) Neocarzinostatin: AAPTATVTPSSGLSDGTVVKVAGAGLQAGTAYDVGQCAWVDTGVLACNPADFSSVTADANGSASTSLTVRRSFEGFLFDGTRWGTVDCTTAACQVGLSDAAGNGPEGVAISFN | 150
5 | HBW-18(B): NCS-apoprotein and cosmomycin A bound together, molar ratio 1:5 (conjugate, UniProt P0A3R9 35-147, looked up, complex with cosmomycin A, 1:5) Neocarzinostatin: AAPTATVTPSSGLSDGTVVKVAGAGLQAGTAYDVGQCAWVDTGVLACNPADFSSVTADANGSASTSLTVRRSFEGFLFDGTRWGTVDCTTAACQVGLSDAAGNGPEGVAISFN | 175
6 | HBW-10(B): NCS-apoprotein and daunomycin bound through hydrogen bond and/or hydrophobic bond, molar ratio 1:5 (conjugate, UniProt P0A3R9 35-147, looked up, noncovalent complex with daunomycin, 1:5) Neocarzinostatin: AAPTATVTPSSGLSDGTVVKVAGAGLQAGTAYDVGQCAWVDTGVLACNPADFSSVTADANGSASTSLTVRRSFEGFLFDGTRWGTVDCTTAACQVGLSDAAGNGPEGVAISFN | 270
7 | HBW-18(A): NCS-apoprotein and cosmomycin A bound together, molar ratio 1:1 (conjugate, UniProt P0A3R9 35-147, looked up, complex with cosmomycin A, 1:1) Neocarzinostatin: AAPTATVTPSSGLSDGTVVKVAGAGLQAGTAYDVGQCAWVDTGVLACNPADFSSVTADANGSASTSLTVRRSFEGFLFDGTRWGTVDCTTAACQVGLSDAAGNGPEGVAISFN | 170
8 | HBW-20(A): NCS-apoprotein and adriamycin bound together, molar ratio 1:1 (conjugate, UniProt P0A3R9 35-147, looked up, noncovalent complex with adriamycin, 1:1) Neocarzinostatin: AAPTATVTPSSGLSDGTVVKVAGAGLQAGTAYDVGQCAWVDTGVLACNPADFSSVTADANGSASTSLTVRRSFEGFLFDGTRWGTVDCTTAACQVGLSDAAGNGPEGVAISFN | 268
9 | HBW-22(B): NCS-apoprotein and γ-rhodomycin Y bound together, molar ratio 1:5 (conjugate, UniProt P0A3R9 35-147, looked up, complex with gamma-rhodomycin Y, 1:5) Neocarzinostatin: AAPTATVTPSSGLSDGTVVKVAGAGLQAGTAYDVGQCAWVDTGVLACNPADFSSVTADANGSASTSLTVRRSFEGFLFDGTRWGTVDCTTAACQVGLSDAAGNGPEGVAISFN | 162

Same assay, conditions: dose 2 mg/Kg, once a day for five days starting 24 hours after tumor cell injection; control survival day = 100%

Row | Molecule | Life Prolongation Rate [%]
10 | CC[C@@]1(O)C[C@H](O[C@H]2C[C@H](N(C)C)[C@H](O[C@H]3C[C@H](O)[C@H](O[C@H]4CCC(=O)[C@H](C)O4)[C@H](C)O3)[C@H](C)O2)c2c(cc3c(c2O)C(=O)c2c(O)cccc2C3=O)[C@H]1C(=O)OC [Aclacinomycin A, aclacinomycin A, reference compound] | 135
11 | COc1cccc2c1C(=O)c1c(O)c3c(c(O)c1C2=O)C[C@@](O)(C(=O)CO)C[C@@H]3O[C@H]1C[C@H](N)[C@H](O)[C@H](C)O1 [Adriamycin, adriamycin, reference compound] | 150
12 | HB-10(A): NCS-apoprotein and daunomycin combined at molar ratio 1:1 (conjugate, UniProt P0A3R9 35-147, looked up, complex with daunomycin, 1:1) Neocarzinostatin: AAPTATVTPSSGLSDGTVVKVAGAGLQAGTAYDVGQCAWVDTGVLACNPADFSSVTADANGSASTSLTVRRSFEGFLFDGTRWGTVDCTTAACQVGLSDAAGNGPEGVAISFN | 250
13 | HB-21(B): NCS-apoprotein and aclacinomycin A bound together, molar ratio 1:5 (conjugate, UniProt P0A3R9 35-147, looked up, aclacinomycin A conjugate, 1:5) Neocarzinostatin: AAPTATVTPSSGLSDGTVVKVAGAGLQAGTAYDVGQCAWVDTGVLACNPADFSSVTADANGSASTSLTVRRSFEGFLFDGTRWGTVDCTTAACQVGLSDAAGNGPEGVAISFN | 145
14 | HB-21(A): NCS-apoprotein and aclacinomycin A bound together, molar ratio 1:1 (conjugate, UniProt P0A3R9 35-147, looked up, complex with aclacinomycin A, 1:1) Neocarzinostatin: AAPTATVTPSSGLSDGTVVKVAGAGLQAGTAYDVGQCAWVDTGVLACNPADFSSVTADANGSASTSLTVRRSFEGFLFDGTRWGTVDCTTAACQVGLSDAAGNGPEGVAISFN | 142
15 | HB-10(B): NCS-apoprotein and daunomycin combined at molar ratio 1:10 (conjugate, UniProt P0A3R9 35-147, looked up, daunomycin conjugate, 1:10) Neocarzinostatin: AAPTATVTPSSGLSDGTVVKVAGAGLQAGTAYDVGQCAWVDTGVLACNPADFSSVTADANGSASTSLTVRRSFEGFLFDGTRWGTVDCTTAACQVGLSDAAGNGPEGVAISFN | 265
16 | HB-10(D): NCS-apoprotein and daunomycin combined at molar ratio 4:1 (conjugate, UniProt P0A3R9 35-147, looked up, complex with daunomycin, 4:1) Neocarzinostatin: AAPTATVTPSSGLSDGTVVKVAGAGLQAGTAYDVGQCAWVDTGVLACNPADFSSVTADANGSASTSLTVRRSFEGFLFDGTRWGTVDCTTAACQVGLSDAAGNGPEGVAISFN | 200
17 | HB-10(C): NCS-apoprotein and daunomycin combined at molar ratio 2:1 (conjugate, UniProt P0A3R9 35-147, looked up, daunomycin conjugate, 2:1) Neocarzinostatin: AAPTATVTPSSGLSDGTVVKVAGAGLQAGTAYDVGQCAWVDTGVLACNPADFSSVTADANGSASTSLTVRRSFEGFLFDGTRWGTVDCTTAACQVGLSDAAGNGPEGVAISFN | 230
18 | HB-20(A): NCS-apoprotein and adriamycin bound together, molar ratio 1:1 (conjugate, UniProt P0A3R9 35-147, looked up, complex with adriamycin, 1:1) Neocarzinostatin: AAPTATVTPSSGLSDGTVVKVAGAGLQAGTAYDVGQCAWVDTGVLACNPADFSSVTADANGSASTSLTVRRSFEGFLFDGTRWGTVDCTTAACQVGLSDAAGNGPEGVAISFN | 200
19 | HB-18(A): NCS-apoprotein and cosmomycin A bound together, molar ratio 1:1 (conjugate, UniProt P0A3R9 35-147, looked up, cosmomycin A conjugate, 1:1) Neocarzinostatin: AAPTATVTPSSGLSDGTVVKVAGAGLQAGTAYDVGQCAWVDTGVLACNPADFSSVTADANGSASTSLTVRRSFEGFLFDGTRWGTVDCTTAACQVGLSDAAGNGPEGVAISFN | 168
20 | HB-20(B): NCS-apoprotein and adriamycin bound together, molar ratio 1:5 (conjugate, UniProt P0A3R9 35-147, looked up, complex with adriamycin, 1:5) Neocarzinostatin: AAPTATVTPSSGLSDGTVVKVAGAGLQAGTAYDVGQCAWVDTGVLACNPADFSSVTADANGSASTSLTVRRSFEGFLFDGTRWGTVDCTTAACQVGLSDAAGNGPEGVAISFN | 205
21 | HB-18(B): NCS-apoprotein and cosmomycin A bound together, molar ratio 1:5 (conjugate, UniProt P0A3R9 35-147, looked up, cosmomycin A conjugate, 1:5) Neocarzinostatin: AAPTATVTPSSGLSDGTVVKVAGAGLQAGTAYDVGQCAWVDTGVLACNPADFSSVTADANGSASTSLTVRRSFEGFLFDGTRWGTVDCTTAACQVGLSDAAGNGPEGVAISFN | 170
